Reference: PMC5504490 (Journal of Proteome Research, 2017)

Target: RNAP β′ subunit with 6his (rpoC-6his), in purified RNAP (B. subtilis (strain BS200), UniProt P37871 1-1199)
Assay: cross-linking

Sequence of RNAP β′ subunit with 6his (rpoC-6his), in purified RNAP (P37871 whole entry): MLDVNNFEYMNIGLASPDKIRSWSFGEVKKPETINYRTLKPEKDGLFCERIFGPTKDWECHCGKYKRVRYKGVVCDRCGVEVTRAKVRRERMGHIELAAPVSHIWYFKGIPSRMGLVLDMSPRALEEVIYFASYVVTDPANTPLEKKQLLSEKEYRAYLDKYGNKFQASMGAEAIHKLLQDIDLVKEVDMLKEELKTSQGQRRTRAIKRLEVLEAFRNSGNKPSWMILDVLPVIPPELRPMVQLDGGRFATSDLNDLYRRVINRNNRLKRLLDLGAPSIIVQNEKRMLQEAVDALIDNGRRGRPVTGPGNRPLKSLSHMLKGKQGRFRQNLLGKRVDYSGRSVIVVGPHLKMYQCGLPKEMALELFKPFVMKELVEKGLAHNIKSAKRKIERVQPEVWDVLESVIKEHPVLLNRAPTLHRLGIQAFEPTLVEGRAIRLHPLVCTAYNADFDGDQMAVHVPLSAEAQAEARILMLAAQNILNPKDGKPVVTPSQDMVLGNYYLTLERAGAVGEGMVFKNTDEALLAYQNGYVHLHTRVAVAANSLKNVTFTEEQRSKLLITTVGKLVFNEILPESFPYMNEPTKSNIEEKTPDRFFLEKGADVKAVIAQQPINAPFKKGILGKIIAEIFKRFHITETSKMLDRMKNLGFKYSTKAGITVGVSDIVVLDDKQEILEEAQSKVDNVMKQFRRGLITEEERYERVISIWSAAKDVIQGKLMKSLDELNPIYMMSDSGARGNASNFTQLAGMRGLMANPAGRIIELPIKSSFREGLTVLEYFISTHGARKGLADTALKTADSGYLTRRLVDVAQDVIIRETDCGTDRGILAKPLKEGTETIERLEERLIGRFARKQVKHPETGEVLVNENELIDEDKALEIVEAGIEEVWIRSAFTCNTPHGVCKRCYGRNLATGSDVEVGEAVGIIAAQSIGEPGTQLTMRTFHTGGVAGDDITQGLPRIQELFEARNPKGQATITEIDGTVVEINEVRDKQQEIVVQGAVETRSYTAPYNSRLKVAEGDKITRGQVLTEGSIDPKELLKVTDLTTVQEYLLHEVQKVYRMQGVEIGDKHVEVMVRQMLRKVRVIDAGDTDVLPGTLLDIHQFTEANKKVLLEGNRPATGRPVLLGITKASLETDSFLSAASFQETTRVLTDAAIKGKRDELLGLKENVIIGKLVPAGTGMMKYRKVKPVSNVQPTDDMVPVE

binding result: binds
B1: δ subunit (RpoE) of RNAP (natural protein)
chain: MGIKQYSQEELKEMALVEIAHELFEEHKKPVPFQELLNEIASLLGVKKEELGDRIAQFYTDLNIDGRFLALSDQTWGLRSWYPYDQLDEETQPTVKAKKKKAKKAVEEDLDLDEFEEIDEDDLDLDEVEEELDLEADDFDEEDLDEDDDDLEIEEDIIDEDDEDYDDEEEEIK
